Target: 基孔肯雅病毒E2蛋白 (基孔肯雅病毒标准株S27, UniProt Q8JUX5 326-748)
Assay: cell-based or functional assay

基孔肯雅病毒E2蛋白, sequence (Q8JUX5 326-748 limits assumed): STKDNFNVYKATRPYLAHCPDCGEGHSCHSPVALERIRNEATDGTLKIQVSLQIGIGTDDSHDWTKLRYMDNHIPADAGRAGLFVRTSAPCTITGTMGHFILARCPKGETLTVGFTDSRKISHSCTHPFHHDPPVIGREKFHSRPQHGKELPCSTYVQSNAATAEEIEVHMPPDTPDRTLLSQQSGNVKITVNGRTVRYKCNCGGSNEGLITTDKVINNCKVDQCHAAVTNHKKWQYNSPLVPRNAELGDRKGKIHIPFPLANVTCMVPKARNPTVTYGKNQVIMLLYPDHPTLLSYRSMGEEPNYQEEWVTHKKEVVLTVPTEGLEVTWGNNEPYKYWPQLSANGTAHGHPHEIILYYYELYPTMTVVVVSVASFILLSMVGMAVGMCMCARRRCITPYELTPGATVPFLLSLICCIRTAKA

B1: 抗基孔肯雅病毒全人源单克隆抗体8D1 (antibody, human IgG1, kappa, V domains shown)
VH: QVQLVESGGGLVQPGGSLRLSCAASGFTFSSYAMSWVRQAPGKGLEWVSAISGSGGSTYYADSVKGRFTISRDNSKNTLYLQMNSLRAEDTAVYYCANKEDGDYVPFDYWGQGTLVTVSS
VL: DIVMTQSPATLSASVGDRVTITCRASQSISSYLNWYQQKPGKAPKLLIYAASSLQSGVPSRFSGSGSGTDFTLTISSLQPEDFATYYCQQSYFFGPGTKVDIKR
IC50, Vero细胞中和实验 (结晶紫染色, 细胞活率): 0.12 µg/mL

Source: patent publication CN110903386A (INST MILITARY MEDICINE ACADEMY MILITARY SCIENCES PLA, dated 2020)
